Assay results: US11746139B2, “IL-7Rαγc binding compounds” (MEDIKINE, INC., priority 2020, dated 2023)

Key:
Rγc subunit = molecular target: T1, Rγc subunit (Homo sapiens, UniProt P31785); test: Alanine scan competition binding assay, binding to Rγc subunit; conditions: alanine scan peptides
T1 construct: purchased ACRObiosystems, Inc. ILG-H5256

IL-7Rα subunit [1] = molecular target: T2, IL-7Rα subunit (Homo sapiens, UniProt P16871); test: Phage competitive binding assay characterizing the IL-7Rα ligand binding site; conditions: for Competition with Phage Clone SEQ ID NO: 5 (Family 1) for binding to the IL-7Rα subunit: phage clone 5, immobilized IL-7Rα ECD; for Competition with Phage Clone SEQ ID NO: 43 (Family 3A) for binding to the IL-7Rα subunit: phage clone 43, immobilized IL-7Rα ECD; for Competition with Phage Clone SEQ ID NO: 104 (Family 3B) for binding to the IL-7Rα subunit: phage clone 104, immobilized IL-7Rα ECD; for Competition with Phage Clone SEQ ID NO: 313 (Family 2) for binding to the IL-7Rα subunit: phage clone 313, immobilized IL-7Rα ECD
T2 sequence (P16871 21-236): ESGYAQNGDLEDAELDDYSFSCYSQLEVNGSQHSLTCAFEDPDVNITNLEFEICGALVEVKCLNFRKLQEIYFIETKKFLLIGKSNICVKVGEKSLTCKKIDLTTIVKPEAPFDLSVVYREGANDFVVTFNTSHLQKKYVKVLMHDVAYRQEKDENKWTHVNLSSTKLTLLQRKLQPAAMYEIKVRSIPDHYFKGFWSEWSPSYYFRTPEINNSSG

IL-7Rα subunit [2] = molecular target: T2, IL-7Rα subunit; test: Competition of IL-7Rα ligands with IL-7 for binding to IL-7Rα

T1 sequence (P31785 23-254): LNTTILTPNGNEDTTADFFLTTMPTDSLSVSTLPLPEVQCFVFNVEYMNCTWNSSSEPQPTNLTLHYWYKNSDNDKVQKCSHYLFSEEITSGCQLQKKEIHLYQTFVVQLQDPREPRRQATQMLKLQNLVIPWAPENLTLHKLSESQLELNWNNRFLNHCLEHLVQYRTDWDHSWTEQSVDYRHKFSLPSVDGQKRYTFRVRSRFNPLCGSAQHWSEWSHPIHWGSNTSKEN

Molecule | IC50 (Rγc subunit) [nM] | Competitive binding with IL-7 binding to IL-7Rα (IL-7Rα subunit [2]) | Competition with Phage Clone SEQ ID NO: 965 (N/A) for binding to the IL-7Rα subunit (IL-7Rα subunit [1]; phage clone 965, immobilized IL-7Rα ECD) | Competition with Phage Clone SEQ ID NO: 5 (Family 1) for binding to the IL-7Rα subunit (IL-7Rα subunit [1]) | Competition with Phage Clone SEQ ID NO: 43 (Family 3A) for binding to the IL-7Rα subunit (IL-7Rα subunit [1]) | Competition with Phage Clone SEQ ID NO: 104 (Family 3B) for binding to the IL-7Rα subunit (IL-7Rα subunit [1]) | Competition with Phage Clone SEQ ID NO: 313 (Family 2) for binding to the IL-7Rα subunit (IL-7Rα subunit [1])
CC(C)C[C@@H]1NC(=O)[C@H](CCC(=O)O)NC(=O)[C@H](C(C)C)NC(=O)CNC(=O)[C@H](CCC(=O)O)NC(=O)[C@H](Cc2c[nH]c3ccccc23)NC(=O)[C@H](CC(=O)O)NC(=O)[C@H](C)NC(=O)[C@@H](NC(=O)[C@@H](NC(=O)[C@@H](NC(=O)CNC(=O)CN)C(C)C)C(C)C)CSSC[C@@H](C(=O)N[C@@H](Cc2c[nH]c3ccccc23)C(=O)N[C@@H](CCC(N)=O)C(=O)NCC(=O)NCC(=O)O)NC1=O [SEQ ID NO: 1032, G G V V C A D W E G V E L C W Q G G] | < 100 |  |  |  |  |  | 
CC(C)C[C@@H]1NC(=O)[C@H](CCC(=O)O)NC(=O)[C@H](C(C)C)NC(=O)CNC(=O)[C@H](CCC(=O)O)NC(=O)[C@H](Cc2c[nH]c3ccccc23)NC(=O)[C@H](C)NC(=O)[C@H](CCC(N)=O)NC(=O)[C@@H](NC(=O)[C@@H](NC(=O)[C@@H](NC(=O)CNC(=O)CN)C(C)C)C(C)C)CSSC[C@@H](C(=O)N[C@@H](Cc2c[nH]c3ccccc23)C(=O)N[C@@H](CCC(N)=O)C(=O)NCC(=O)NCC(=O)O)NC1=O [SEQ ID NO: 1033, G G V V C Q A W E G V E L C W Q G G] | < 50 |  |  |  |  |  | 
CC(C)C[C@@H]1NC(=O)[C@H](CCC(=O)O)NC(=O)[C@H](C(C)C)NC(=O)CNC(=O)[C@H](C)NC(=O)[C@H](Cc2c[nH]c3ccccc23)NC(=O)[C@H](CC(=O)O)NC(=O)[C@H](CCC(N)=O)NC(=O)[C@@H](NC(=O)[C@@H](NC(=O)[C@@H](NC(=O)CNC(=O)CN)C(C)C)C(C)C)CSSC[C@@H](C(=O)N[C@@H](Cc2c[nH]c3ccccc23)C(=O)N[C@@H](CCC(N)=O)C(=O)NCC(=O)NCC(=O)O)NC1=O [SEQ ID NO: 1035, G G V V C Q D W A G V E L C W Q G G] | < 50 |  |  |  |  |  | 
CC(C)C[C@@H]1NC(=O)[C@H](CCC(=O)O)NC(=O)[C@H](C(C)C)NC(=O)[C@H](C)NC(=O)[C@H](CCC(=O)O)NC(=O)[C@H](Cc2c[nH]c3ccccc23)NC(=O)[C@H](CC(=O)O)NC(=O)[C@H](CCC(N)=O)NC(=O)[C@@H](NC(=O)[C@@H](NC(=O)[C@@H](NC(=O)CNC(=O)CN)C(C)C)C(C)C)CSSC[C@@H](C(=O)N[C@@H](Cc2c[nH]c3ccccc23)C(=O)N[C@@H](CCC(N)=O)C(=O)NCC(=O)NCC(=O)O)NC1=O [SEQ ID NO: 1036, G G V V C Q D W E A V E L C W Q G G] | < 100 |  |  |  |  |  | 
CC(C)C[C@@H]1NC(=O)[C@H](CCC(=O)O)NC(=O)[C@H](C)NC(=O)CNC(=O)[C@H](CCC(=O)O)NC(=O)[C@H](Cc2c[nH]c3ccccc23)NC(=O)[C@H](CC(=O)O)NC(=O)[C@H](CCC(N)=O)NC(=O)[C@@H](NC(=O)[C@@H](NC(=O)[C@@H](NC(=O)CNC(=O)CN)C(C)C)C(C)C)CSSC[C@@H](C(=O)N[C@@H](Cc2c[nH]c3ccccc23)C(=O)N[C@@H](CCC(N)=O)C(=O)NCC(=O)NCC(=O)O)NC1=O [SEQ ID NO: 1037, G G V V C Q D W E G A E L C W Q G G] | < 2000 |  |  |  |  |  | 
CC(C)[C@@H]1NC(=O)CNC(=O)[C@H](CCC(=O)O)NC(=O)[C@H](Cc2c[nH]c3ccccc23)NC(=O)[C@H](CC(=O)O)NC(=O)[C@H](CCC(N)=O)NC(=O)[C@@H](NC(=O)[C@@H](NC(=O)[C@@H](NC(=O)CNC(=O)CN)C(C)C)C(C)C)CSSC[C@@H](C(=O)N[C@@H](Cc2c[nH]c3ccccc23)C(=O)N[C@@H](CCC(N)=O)C(=O)NCC(=O)NCC(=O)O)NC(=O)[C@H](C)NC(=O)[C@H](CCC(=O)O)NC1=O [SEQ ID NO: 1039, G G V V C Q D W E G V E A C W Q G G] | < 5000 |  |  |  |  |  | 

The next lines start with results.

IC50 (Rγc subunit) [nM] | Competitive binding with IL-7 binding to IL-7Rα (IL-7Rα subunit [2]) | Competition with Phage Clone SEQ ID NO: 965 (N/A) for binding to the IL-7Rα subunit (IL-7Rα subunit [1]; phage clone 965, immobilized IL-7Rα ECD) | Molecule | Competition with Phage Clone SEQ ID NO: 5 (Family 1) for binding to the IL-7Rα subunit (IL-7Rα subunit [1]) | Competition with Phage Clone SEQ ID NO: 43 (Family 3A) for binding to the IL-7Rα subunit (IL-7Rα subunit [1]) | Competition with Phage Clone SEQ ID NO: 104 (Family 3B) for binding to the IL-7Rα subunit (IL-7Rα subunit [1]) | Competition with Phage Clone SEQ ID NO: 313 (Family 2) for binding to the IL-7Rα subunit (IL-7Rα subunit [1])
< 2000 |  |  | CC(C)C[C@@H]1NC(=O)[C@H](CCC(=O)O)NC(=O)[C@H](C(C)C)NC(=O)CNC(=O)[C@H](CCC(=O)O)NC(=O)[C@H](C)NC(=O)[C@H](CC(=O)O)NC(=O)[C@H](CCC(N)=O)NC(=O)[C@@H](NC(=O)[C@@H](NC(=O)[C@@H](NC(=O)CNC(=O)CN)C(C)C)C(C)C)CSSC[C@@H](C(=O)N[C@@H](Cc2c[nH]c3ccccc23)C(=O)N[C@@H](CCC(N)=O)C(=O)NCC(=O)NCC(=O)O)NC1=O [SEQ ID NO: 1034, G G V V C Q D A E G V E L C W Q G G] |  |  |  | 
< 50 |  |  | CC(C)C[C@@H]1NC(=O)[C@H](C)NC(=O)[C@H](C(C)C)NC(=O)CNC(=O)[C@H](CCC(=O)O)NC(=O)[C@H](Cc2c[nH]c3ccccc23)NC(=O)[C@H](CC(=O)O)NC(=O)[C@H](CCC(N)=O)NC(=O)[C@@H](NC(=O)[C@@H](NC(=O)[C@@H](NC(=O)CNC(=O)CN)C(C)C)C(C)C)CSSC[C@@H](C(=O)N[C@@H](Cc2c[nH]c3ccccc23)C(=O)N[C@@H](CCC(N)=O)C(=O)NCC(=O)NCC(=O)O)NC1=O [SEQ ID NO: 1038, G G V V C Q D W E G V A L C W Q G G] |  |  |  | 
 | do not bind competitively |  | G G V P W C T L D P G S L Q C A W F [SEQ ID NO: 313] | + (IL-7Rα ligand competes with phage binding.) | + (IL-7Rα ligand competes with phage binding.) | + (IL-7Rα ligand competes with phage binding.) | + (IL-7Rα ligand competes with phage binding.)
 | do not bind competitively |  | Q C I H W D I E T L L S C V [SEQ ID NO: 5] | + (IL-7Rα ligand competes with phage binding.) | + (IL-7Rα ligand competes with phage binding.) | + (IL-7Rα ligand competes with phage binding.) | + (IL-7Rα ligand competes with phage binding.)
 | do not bind competitively | 0^2 | QCVHWDLDTLFGCIREQLEL [SEQ ID NO: 146] | +^1 (IL-7Rα ligand competes with phage binding.) | + (IL-7Rα ligand competes with phage binding.) | + (IL-7Rα ligand competes with phage binding.) | + (IL-7Rα ligand competes with phage binding.)
 | do not bind competitively |  | V Y C A E I G E Y R V C R Q [SEQ ID NO: 43] | + (IL-7Rα ligand competes with phage binding.) | + (IL-7Rα ligand competes with phage binding.) | + (IL-7Rα ligand competes with phage binding.) | + (IL-7Rα ligand competes with phage binding.)
 | do not bind competitively |  | Y M A C S S G L S L C R L S [SEQ ID NO: 104] | + (IL-7Rα ligand competes with phage binding.) | + (IL-7Rα ligand competes with phage binding.) | + (IL-7Rα ligand competes with phage binding.) | + (IL-7Rα ligand competes with phage binding.)
